Laboratory results from publication PMC10972748 (2024).
Substitutions are numbered along the chain they refer to. Each block holds one binder with its values, some of them ahead of it.

Target: SPSB3–ELOBC heterotrimeric complex (SPSB3 amino acids 83–326 with elongin B and elongin C) (human | , UniProt Q6PJ21 83-326; Q15370 1-118; Q15369 1-112)
Test: BLI

Kd: 453 nM
B1: His-Halo-tagged cGAS single point mutant of Glu515 (natural protein)
chain: MQPWHGKAMQRASEAGATAPKASARNARGAPMDPTESPAAPEAALPKAGKFGPARKSGSRQKKSAPDTQERPPVRATGARAKKAPQRAQDTQPSDATSAPGAEGLEPPAAREPALSRAGSCRQRGARCSTKPRPPPGPWDVPSPGLPVSAPILVRRDAAPGASKLRAVLEKLKLSRDDISTAAGMVKGVVDHLLLRLKCDSAFRGVGLLNTGSYYEHVKISAPNEFDVMFKLEVPRIQLEEYSNTRAYYFVKFKRNPKENPLSQFLEGEILSASKMLSKFRKIIKEEINDIKDTDVIMKRKRGGSPAVTLLISEKISVDITLALESKSSWPASTQEGLRIQNWLSAKVRKQLRLKPFYLVPKHAKEGNGFQEETWRLSFSHIEKEILNNHGKSKTCCENKEEKCCRKDCLKLMKYLLEQLKERFKDKKHLDKFSSYHVKTAFFHVCTQNPQDSQWDRKDLGLCFDNCVTYFLQCLRTEKLENYFIPEFNLFSSNLIDKRSKEFLTKQIEYERNNAFPVFDEF

Kd: 957 nM
B2: His-Halo-tagged cGAS single point mutant of Arg512 (natural protein)
chain: B1 chain with R512A, A515E

Kd: 818 nM
B3: His-Halo-tagged cGAS single point mutant of Asp465 (natural protein)
chain: B1 chain with D465A, A515E
